Measurements reported in US20230357342A1 (published 2023).
Where a chain is given by its changes, count along the chain named. Names may count otherwise.

T1: Fc fused human IL-18Rα (human, UniProt Q13478 19-329)
T1 construct: captured by anti-human IgG on a CM5 chip; also called IL-18Rα monomer; human IL-18 receptor alpha (CD218a); not shown: Fc portion
T1 sequence (looked up): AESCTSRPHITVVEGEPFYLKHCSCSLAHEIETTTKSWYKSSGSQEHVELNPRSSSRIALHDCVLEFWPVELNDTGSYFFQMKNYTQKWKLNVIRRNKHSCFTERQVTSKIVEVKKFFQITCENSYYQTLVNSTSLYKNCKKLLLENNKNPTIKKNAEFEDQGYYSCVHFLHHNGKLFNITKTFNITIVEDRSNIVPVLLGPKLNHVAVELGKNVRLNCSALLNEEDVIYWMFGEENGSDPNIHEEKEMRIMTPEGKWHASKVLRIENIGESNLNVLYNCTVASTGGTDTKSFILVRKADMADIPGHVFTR

T2: IL-18 receptor on HEK-Blue IL18R reporter cells (UniProt Q13478 19-541; O95256 20-599, limits assumed)
T2 sequence (looked up) 1: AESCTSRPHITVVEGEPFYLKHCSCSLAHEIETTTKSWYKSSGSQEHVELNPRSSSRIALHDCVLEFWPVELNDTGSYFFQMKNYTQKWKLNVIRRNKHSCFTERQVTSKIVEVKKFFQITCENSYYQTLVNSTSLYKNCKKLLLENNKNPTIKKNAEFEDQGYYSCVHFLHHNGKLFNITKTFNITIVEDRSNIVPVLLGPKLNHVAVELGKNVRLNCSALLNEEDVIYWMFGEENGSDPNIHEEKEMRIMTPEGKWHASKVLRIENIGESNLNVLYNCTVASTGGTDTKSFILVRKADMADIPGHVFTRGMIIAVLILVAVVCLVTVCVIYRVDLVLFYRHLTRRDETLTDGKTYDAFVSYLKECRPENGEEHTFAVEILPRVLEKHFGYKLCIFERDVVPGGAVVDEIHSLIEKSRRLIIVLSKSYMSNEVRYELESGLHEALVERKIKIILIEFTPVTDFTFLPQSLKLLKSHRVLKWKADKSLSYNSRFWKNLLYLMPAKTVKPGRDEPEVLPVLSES
T2 sequence (looked up) 2: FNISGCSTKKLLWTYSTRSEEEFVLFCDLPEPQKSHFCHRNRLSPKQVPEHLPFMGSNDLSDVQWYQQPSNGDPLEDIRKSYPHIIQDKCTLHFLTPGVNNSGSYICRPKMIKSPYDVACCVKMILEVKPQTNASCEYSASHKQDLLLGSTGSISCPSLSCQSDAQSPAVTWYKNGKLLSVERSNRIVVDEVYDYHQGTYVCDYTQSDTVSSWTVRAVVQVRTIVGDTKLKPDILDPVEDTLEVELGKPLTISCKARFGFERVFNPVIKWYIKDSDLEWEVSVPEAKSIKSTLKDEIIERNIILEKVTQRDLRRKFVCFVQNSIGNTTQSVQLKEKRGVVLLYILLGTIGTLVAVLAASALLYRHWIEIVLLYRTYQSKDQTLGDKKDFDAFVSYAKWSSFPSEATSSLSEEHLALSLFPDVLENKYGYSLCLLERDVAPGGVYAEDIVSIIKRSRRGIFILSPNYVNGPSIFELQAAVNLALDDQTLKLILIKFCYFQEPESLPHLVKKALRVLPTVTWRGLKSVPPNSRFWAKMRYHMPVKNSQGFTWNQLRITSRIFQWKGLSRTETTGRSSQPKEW

T3: IL-18Rα/β heterodimer (Fc fused human IL-18Rα mixed with Fc fused human IL-18Rβ) (human, UniProt Q13478 19-329; O95256 20-356)
T3 construct: 6 µg/mL of alpha and beta receptors were mixed and pre-incubated 30 min before capture on anti-human IgG; also called alpha/beta heterodimer IL-18 receptor; heterodimeric human IL-18 receptor alpha (CD218a) and IL-18R accessory protein (IL-18RAP/CDw218b); not shown: Fc portion
T3 sequence (looked up) 1: T1 sequence (looked up)
T3 sequence (looked up) 2: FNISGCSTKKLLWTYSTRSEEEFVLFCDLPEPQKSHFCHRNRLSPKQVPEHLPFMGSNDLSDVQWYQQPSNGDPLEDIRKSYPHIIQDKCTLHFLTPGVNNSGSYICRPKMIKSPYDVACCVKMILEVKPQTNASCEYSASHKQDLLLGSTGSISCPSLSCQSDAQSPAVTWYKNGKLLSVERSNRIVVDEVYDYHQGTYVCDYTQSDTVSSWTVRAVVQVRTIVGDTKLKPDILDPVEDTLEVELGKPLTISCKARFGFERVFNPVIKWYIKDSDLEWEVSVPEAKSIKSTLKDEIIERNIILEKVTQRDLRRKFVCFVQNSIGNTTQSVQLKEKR

B1: modified IL-18 polypeptide SEQ ID NO: 57 (E6K, C38S, K53A) (ligand)
chain: YFGKLKSKLSVIRNLNDQVLFIDQGNRPLFEDMTDSDSRDNAPRTIFIISMYADSQPRGMAVTISVKCEKISTLSCENKIISFKEMNPPDNIKDTKSDIIFFQRSVPGHDNKMQFESSSYEGYFLACEKERDLFKLILKKEDELGDRSIMFTVQNED
B2: modified IL-18 polypeptide SEQ ID NO: 222 (K8R, V11I, C38A, C76A, Q103E, C127A) (ligand)
chain: B1 chain with K6E, K8R, V11I, S38A, A53K, C76A, Q103E, C127A
B3: modified IL-18 polypeptide SEQ ID NO: 237 (E6K, V11I, C38A, K53A, T63A, C76A, C127A, V153E) (ligand)
chain: B1 chain with V11I, S38A, T63A, C76A, C127A, V153E
B4: modified IL-18 polypeptide SEQ ID NO: 226 (V11I, C38A, S55R, C76A, C127A) (ligand)
chain: B1 chain with K6E, V11I, S38A, A53K, S55R, C76A, C127A
B5: modified IL-18 polypeptide SEQ ID NO: 227 (V11I, C38A, S55T, C76A, C127A) (ligand)
chain: B1 chain with K6E, V11I, S38A, A53K, S55T, C76A, C127A
B6: modified IL-18 polypeptide SEQ ID NO: 228 (V11I, C38A, C76A, S105I, C127A) (ligand)
chain: B1 chain with K6E, V11I, S38A, A53K, C76A, S105I, C127A
B7: modified IL-18 polypeptide SEQ ID NO: 225 (V11I, C38A, S55H, C76A, C127A) (ligand)
chain: B1 chain with K6E, V11I, S38A, A53K, S55H, C76A, C127A
B8: modified IL-18 polypeptide SEQ ID NO: 223 (K8E, V11I, C38A, C76A, Q103R, C127A) (ligand)
chain: B1 chain with K6E, K8E, V11I, S38A, A53K, C76A, Q103R, C127A
B9: modified IL-18 polypeptide SEQ ID NO: 239 (E6K, V11I, C38A, M51G, K53A, T63A, C76A, C127A) (ligand)
chain: B1 chain with V11I, S38A, M51G, T63A, C76A, C127A
B10: modified IL-18 polypeptide SEQ ID NO: 240 (E6R, V11I, C38A, K53A, T63A, C76A, C127A) (ligand)
chain: B1 chain with K6R, V11I, S38A, T63A, C76A, C127A
B11: modified IL-18 polypeptide SEQ ID NO: 229 (V11I, C38A, C76A, S105K, C127A) (ligand)
chain: B1 chain with K6E, V11I, S38A, A53K, C76A, S105K, C127A
B12: modified IL-18 polypeptide SEQ ID NO: 230 (K8L, E6K, V11I, C38A, K53A, T63A, C76A, C127A) (ligand)
chain: B1 chain with K8L, V11I, S38A, T63A, C76A, C127A
B13: modified IL-18 polypeptide SEQ ID NO: 235 (E6K, K8E, V11I, C38A, K53A, T63A, C76A, Q103R, C127A) (ligand)
chain: B1 chain with K8E, V11I, S38A, T63A, C76A, Q103R, C127A
B14: modified IL-18 polypeptide SEQ ID NO: 221 (V11I, C38A, K53A, C76A, D110A, C127A) (ligand)
chain: B1 chain with K6E, V11I, S38A, C76A, D110A, C127A
B15: modified IL-18 polypeptide SEQ ID NO: 234 (E6K, V11I, C38A, K53A, T63A, C76A, Q103R, C127A) (ligand)
chain: B1 chain with V11I, S38A, T63A, C76A, Q103R, C127A
B16: modified IL-18 polypeptide SEQ ID NO: 243 (Y1M, E6K, V11I, C38A, K53A, T63A, C76A, C127A) (ligand)
chain: B1 chain with Y1M, V11I, S38A, T63A, C76A, C127A
B17: modified IL-18 polypeptide SEQ ID NO: 224 (V11I, C38A, C76A, Q103K, C127A) (ligand)
chain: B1 chain with K6E, V11I, S38A, A53K, C76A, Q103K, C127A
B18: modified IL-18 polypeptide SEQ ID NO: 232 (E6K, V11I, C38A, I49M, K53A, T63A, C76A, C127A) (ligand)
chain: B1 chain with V11I, S38A, I49M, T63A, C76A, C127A
B19: modified IL-18 polypeptide SEQ ID NO: 233 (E6K, V11I, C38A, I49R, K53A, T63A, C76A, C127A) (ligand)
chain: B1 chain with V11I, S38A, I49R, T63A, C76A, C127A
B20: modified IL-18 polypeptide SEQ ID NO: 238 (E6K, V11I, C38A, K53A, T63A, C76A, C127A, V153Y) (ligand)
chain: B1 chain with V11I, S38A, T63A, C76A, C127A, V153Y
B21: modified IL-18 polypeptide SEQ ID NO: 241 (N-terminal 4xG, E6K, V11I, C38A, K53A, T63A, C76A, C127A) (ligand)
chain: GGGGYFGKLKSKLSIIRNLNDQVLFIDQGNRPLFEDMTDSDARDNAPRTIFIISMYADSQPRGMAVAISVKCEKISTLSAENKIISFKEMNPPDNIKDTKSDIIFFQRSVPGHDNKMQFESSSYEGYFLAAEKERDLFKLILKKEDELGDRSIMFTVQNED
B22: modified IL-18 polypeptide SEQ ID NO: 242 (N-terminal G, E6K, V11I, C38A, K53A, T63A, C76A, C127A) (ligand)
chain: GYFGKLKSKLSIIRNLNDQVLFIDQGNRPLFEDMTDSDARDNAPRTIFIISMYADSQPRGMAVAISVKCEKISTLSAENKIISFKEMNPPDNIKDTKSDIIFFQRSVPGHDNKMQFESSSYEGYFLAAEKERDLFKLILKKEDELGDRSIMFTVQNED
B23: modified IL-18 polypeptide SEQ ID NO: 244 (N-terminal G, E6K, V11I, C38A, M51G, K53A, T63A, C76A, C127A) (ligand)
chain: B22 chain with M52G

Target: T1, Fc fused human IL-18Rα
Assay: SPR, Fc-IL-18Rα captured via anti-human IgG, IL-18 as analyte, 1:1 model
Experimental: (§1) The interaction of the wild type and of modified IL-18 polypeptides with human IL-18 receptor subunits are measured with Surface Plasmon Resonance (SPR) technology. Anti-human IgG antibodies are bound by amine coupling onto a CM5 chip to capture 6 μg/mL of Fc fused human IL-18Rα, 6 μg/mL of Fc fused human IL-18Rβ, or 2 μg/mL of Fc fused human IL-18BP isoform a (IL-18BPa) for 30 min before capture. In other settings, 6 μg/mL of alpha and beta IL-18 receptors are mixed and pre-incubated for 30 min before capture of the alpha/beta heterodimer IL-18 receptor.
(§2) The kinetic binding of the IL-18 analytes are measured with a Biacore 8K instrument in two fold serial dilutions starting at 1 μM down to 0.98 nM. Regeneration of the surface back to amine coupled anti IgG antibody is done after every concentration of analyte. To measure the protein association to the receptors, the samples are injected with a flow rate of 50 μL/min for 60 s, followed by 300 s buffer only to detect the dissociation. The used running buffer is 1×PBS with 0.05% Tween20. The relative response units (RU, Y-axis) are plotted against time (s, X-axis) and analyzed in a kinetic 1:1 binding model for the monomer receptor binding and for the binding to the IL-18BP. A kinetic heterogenous ligand fit model is applied for the alpha/beta heterodimer binding.

Kd [nM]	koff [s⁻¹]	kon [M⁻¹ s⁻¹]	Binder
72.4	0.0151	208000	B1

Target: T2, IL-18 receptor on HEK-Blue IL18R …
Assay: cell-based or functional assay

EC50, HEK-Blue IL18R reporter (SEAP) [nM]	Binder
0.53	B1
2.01	B2
0.1	B3
1.91	B4
4.73	B5
5.37	B6
3.14	B7
2.3	B8
0.1	B9
0.04	B10
7.73	B11
0.29	B12
0.4	B13
2.02	B14
0.26	B15
0.02	B16
1.5	B17
0.07	B18
0.04	B19
0.08	B20
2.5	B21
1.68	B22
14	B23

Target: T3, IL-18Rα/β heterodimer (Fc fused human …)
Assay: SPR, Fc-IL-18Rα and Fc-IL-18Rβ pre-mixed and captured, IL-18 as analyte, heterogeneous ligand model
Experimental: as §1, §2

Kd [nM]	koff [s⁻¹]	kon [M⁻¹ s⁻¹]	Binder
2.92	0.0008	279000	B1
